Experimental data taken from the DeepSol protein solubility set.

assay: soluble on expression in E. coli; label from the status in PepcDB or PDB records

Row | Sequence | soluble on expression in E. coli
1 | MAHHHHHHMRCFSTKSTAPTKGFHDNASGKGSNSVPVKSSALFIEALSKRRTIYSLGNKLSQSHSEVIEIIEGTIRECPSSFNIKSSTVVILFGADHQKVWDIVKAALKKVTSEEQYAQSEMKVNNSFAAGAGTILFYEDGAAIKMQQKAFPRYAANVSTFSQQSSAMAQFAVWSALAQDGIGASLQHYNELIEADLRAAFDVPEEWQLIAQMPFGSIETPADKKTRNSDKGRVVVHGAQR | soluble
2 | MAHHHHHHMRCGGRWIVERSDGFVIEVEKPGVSVVFGRDIGLPSAQRMDGKYVSRQQFSVEWKASSLHVRQLGKNPTFYSMEFHTLPGDGTAEKELVCCREEETREGKQMGDGGKGLNVILVPPVSNENFLASLRGGAKGIEPATLHFPGELNLPRFTVRYVVADEKSSEEKISREMLTVPLGSSKSDEVEEDERANQPWMTGSWRGILDSVLHEQQQQQQQAER | not soluble
3 | MAHHHHHHMRDPQKNCDDVVALRETLKERAGEMAKKMKENERELFLNPMPLGISCDGLPLDTDPEFHALEVARLRERQEESCDEAKIHKLNDALNERAEDLARAKLAADRQYLNPEHLRVAVDELPLNEDRNFILKEALRQEKLQNSRESAAAIAALENELNNMAKAMAAEMLAKQRPSYLAPEHHGRRIEDLPLNDSDDFLKKERRRRDLLKQPSWDIDVVAEIDKELSEMADAMARAMNAAERPQYMKASYYDKTLSELSLDTDSIIARLEAQRARLKRNPVRNAEAIHATEAAIISRAEALAKASINVGRGGVFSASQAECRSISLTSMEANSFNLLRRRGWSS | soluble
4 | MAHHHHHHMRLILLGAPGAGKGTQANFIKEKFGIPQISTGDMLRAAVKAGTPLGVEAKTYMDEGKLVPDSLIIGLVKERLKEADCANGYLFDGFPRTIAQADAMKEAGVAIDYVLEIDVPFSEIIERMSGRRTHPASGRTYHVKFNPPKVEGKDDVTGEPLVQRDDDKEETVKKRLDVYEAQTKPLITYYGDWARRGAENGLKAPAYRKISGLGAVEEIRARVRRAQVSE | soluble
5 | MAHHHHHHMRQGRVRTESTVQRFAKTPIGEGFDLWDRDYLLGAMRLFLFKAETAPPFQVGPCMDATGEILVQLEELEDAREQFSIAAEKYLITQQQQLAKIMEIKALECERGPQAALEELTAFLKKETASTNATAVPAPITRAYAYQAELLLKTATPETPELFTEAVETAKLACNHAWDRVHMGYVVLGDALKASGCPDEARKAYSEAFETNRNCITALERHIEVLKEYIAESNDDMRIEALRKELLPLLESAISLHPRPTLIREKAFLLSETLGDAAALEFLDPLICNPPPEEADAAGNVGGRTVATLLKAKAAILADGGKMQEALEVAEAALKESPSDEEAKAIVAELRESL | soluble
6 | MAHHHHHHMRQTGSFQPFFLRGKVVHGKGRGGSQLGFPTANIGLDKDVMECLQPYKNLVVYGWGTVSQVPGKERESFGPYPFAASIGFNMQFDEKTLTVEPYFLHEFGWDFYGAVVKIIVLGEIRSMGSFHSLQALVDTIKSDVQFTRDMLQKPQLQEFSRHSLFESPSSTIPYFEDLPDE | soluble
7 | MAHHHHHHMRSLPNIIVTGVPGVGKTTLCEELVEILNKQLKENQQAESASQMKHLNLSKVIKEERLYEEFDDQLDASIYSSDMVNEKLEKLKLENGGYIIDFHDVDFLDEKELIDHIFLLTASTNKLYERLEKRNYSEEKIKNNIECEIFQVIKEDILTSYNDPSIFDELENNDMEQYESNLQLIKGWVLSWVKNGVAMPR | soluble
8 | MAHHHHHHMSAPTALTVPRRSASDAALADATRRELEEEMGRSDKPEQPTPPAGWQVVRKPGTCTFDLTKSFEGEDLVVRYSTNQDSDKANSHNIFVYITQKNGQTMQADLSIEEGELVLNNIRFYDEAALAKDTGAEAEAKRNELYTGPLVHELDYDLLNCVMTYLEKRGVDEKLGEFVVLYSFWAEQQDYEAWLTTMNKFAS | soluble
9 | MAHHHHHHMSEARQIQSMIDFIEREAQEKAEELEAAAQEEYDVEKMRLVEAEKAKIRAMAEKKLKQVDVDRRVARANYSKVQRMRVMEERARTMEKLHEQTRQKIVAMVNNPPQYKPMLVRLIHQSLMSIRTDAVVQCRKEDEAEVVRSIPELERWYKEKTGATISIQTSKTYLDTAEAWGGVVVKSTDGRVVCNNTLSYRTKTCFDEQLPTVRFHLFNPDAPL | soluble
10 | MAHHHHHHMSEENNIRKGPSFVFHDIKKKRMREIILMCNKKKQKKMLLKSLNIKFIYEEKNKKRVKIHVDNFLPVSINSDMEIIKKYKEILYDDNYCNIYDINKLKIGKMKKILKDFFYDIFLFCKYIFYKFIYKCQNIINLFLEYKQIMLSHCINRVPYFIKVFSFSSLHILLKYSIRSFFKNYSFYKYIFTPNYKICFLCIHKNSYYSEIEKEDTSQICFDDVSTCQEINILGSEEYLRGLVTSSVGFIDNYDDKNRGNNFLEIFQKHMNIFDIKKDDVHFKINKYEQRIDIEKAFSHIKNNILQKYDERRREKKKDNDKLIRRVQNMYDDVENKIMSSLKKILDITNYDEEREKC | soluble
11 | MAHHHHHHMSELQAAAGVFGRGTAAGDAIYRCYARPTKESTLDPELLARLQKMRLEREAAEAALFRPKPVPKSKAMISRPRVGLGRRISEEEIARRRLDALPHKKREESIQRELRAFGRPSLLPPLYKSPPITVAEKERLRQIFQFGELPPKPLNFTGANRVRYALIDRRFRLKDRFETLKKHVDALREELRQLRQQPQKSALPETVADGKGNENEIIPSGAEIIRRFHRRDPVMALERRMLEQELTTSIGEVLQEMKEIDFDLRQLDENEAKRYIPKP | not soluble
12 | MAHHHHHHMSEQNGAHSLQAELERMNAAIESYALQLDTINSAIESIDSENHSDDVSRQIFEYQTACERDPANISAEDALDTVTRLENTLKIVRRRNQLLAKENATQQKLLNDRSKFLLKETKNYENLVDRTGWHEQCSLNPEDEAQKASDIQEMSQLEVTVQRELRAAHTILKKKEALLRGLEEQLAKGTDLDAELNNAYNDIRVRKRECRELELRLEHLRKCSKKNDEALTVFENHGQSVSIEYMETDKDFLKDAVAQMKLVCRRQDNVIRAQLTRQQQLQTRLDTILRSLREMNLEKEYERNVSKSALVPSASREEPEDVSSILPKEETIPIHTYRLIFKNKELMNTNVVRKNMLVLEKEGVIQALEASLMKYANALNMTTRQLENMKINKGFEMTELMVELQQQHKNYLQQLEQIMQENNKLKKQLYRTPQLRTLIKNR | not soluble
13 | MAHHHHHHMSFSKFMKCSTQLSRRLSNFEGKGTFNKSAFYNCTREKCSIVCLRKKMNVELKKICEISKMNKRNYSSECENYEFKAETKKLLQIVAHSLYTDKEVFIRELISNSSDAIEKLRFLLQSGNIKASENITFHIKVSTDENNNLFIIEDSGVGMNKEEIIDNLGTIAKSGSLNFLKKLKEQKESINRNNNINKNEIDNKINNNNNMDVPIEGNEKSQEGDIIGQFGVGFYSSFVVSNKVEVFTRSYDNNSSKGYHWVSYGNGTFTLKEVDNIPKGTKIICHLKDSCKEFSNIQNVQKIVEKFSSFINFPVYVLKKKKILQTRKDIEQNELNDHTQQNELNHHNDQNDHTQQNELNHHNDQNDHTQQNELNHHNDQNDHTQQNELNHHVEHHKNVVENKNDEYEKNMDNRTSDNIKPESLSKQNDYENMNQCNNEETVLNRTKELNEEHIVEEILVNKQKPLWCKDNVTEEEHRHFFHFLNKNKSYNEDNKSYLYNMLYKTDAPLSIKSVFYIPEEAPSRLFQQSNDIEISLYCKKVLVKKNADNIIPKWLYFVKGVIDCEDMPLNISRENMQDSSLINKLSRVVVSKILKTLEREADINEEKYLKFYKNYNYNLKEGVLEDSNKNHYKNSLMNLLRFYSINQNKFISLKQYVNNFRNNQKNIYYFSANDKNVALNSPYMEPFKKQNIDVLLLLEEIDEFVLMNLQTYKDAKFVSIDTSQNEDFDEAVLNTNKNDNEKKQSIFFNDEQKKELQAYFKQVLGSK | not soluble
